Patent publication US20250236650A1

The substances below were run against murine CTLA-4 fused to CD3ζ, expressed on the murine T-cell hybridoma 58α-β-CTLA-4/CD3ζ (murine) (UniProt P09793) (assay: flow cytometry on 58α-β-CTLA-4/CD3ζ cells, R-PE donkey anti-mouse IgG secondary antibody, MFI).

Sequence of mouse anti-mouse CTLA-4 antibody 9D9, mouse IgG2b isotype (original isotype, derived from the hybridoma) (light): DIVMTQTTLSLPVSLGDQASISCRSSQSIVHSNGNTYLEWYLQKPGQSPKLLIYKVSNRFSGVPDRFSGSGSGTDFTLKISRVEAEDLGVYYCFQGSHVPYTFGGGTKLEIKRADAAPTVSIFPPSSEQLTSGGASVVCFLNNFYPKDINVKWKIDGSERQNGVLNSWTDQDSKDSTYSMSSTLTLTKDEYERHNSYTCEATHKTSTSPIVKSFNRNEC
Sequence of mouse anti-mouse CTLA-4 antibody 9D9, mouse IgG2b isotype (original isotype, derived from the hybridoma) (heavy): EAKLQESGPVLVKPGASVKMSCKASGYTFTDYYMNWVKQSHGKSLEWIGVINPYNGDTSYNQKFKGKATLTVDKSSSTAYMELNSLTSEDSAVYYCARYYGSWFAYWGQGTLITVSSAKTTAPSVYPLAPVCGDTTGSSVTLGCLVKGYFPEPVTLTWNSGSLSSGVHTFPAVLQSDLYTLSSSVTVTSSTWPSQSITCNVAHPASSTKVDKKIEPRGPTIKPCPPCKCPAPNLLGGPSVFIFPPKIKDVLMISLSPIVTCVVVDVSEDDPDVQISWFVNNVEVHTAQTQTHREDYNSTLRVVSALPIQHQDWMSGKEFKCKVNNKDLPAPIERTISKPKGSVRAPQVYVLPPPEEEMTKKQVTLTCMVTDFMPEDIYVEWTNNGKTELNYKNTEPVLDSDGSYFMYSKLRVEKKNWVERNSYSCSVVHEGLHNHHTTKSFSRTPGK
Sequence of mouse anti-mouse CTLA-4 antibody 9D9, mouse IgG2a isotype (light): as the sequence (light) above
Sequence of mouse anti-mouse CTLA-4 antibody 9D9, mouse IgG2a isotype (heavy): as the sequence (heavy) above
Sequence of mouse anti-mouse CTLA-4 antibody 9D9, mouse IgG1 isotype (light): as the sequence (light) above
Sequence of mouse anti-mouse CTLA-4 antibody 9D9, mouse IgG1 isotype (heavy): as the sequence (heavy) above

In order of rising EC50 (read off the curve):
1. mouse anti-mouse CTLA-4 antibody 9D9, mouse IgG1 isotype containing a D265A mutation (from UniProt P01868 1-324)  0.2 µg/mL
2. mouse anti-mouse CTLA-4 antibody 9D9, mouse IgG2b isotype (original isotype, derived from the hybridoma)  0.4 µg/mL
3. mouse anti-mouse CTLA-4 antibody 9D9, mouse IgG1 isotype  0.6 µg/mL
4. mouse anti-mouse CTLA-4 antibody 9D9, mouse IgG2a isotype  0.7 µg/mL
